Data reported in paper PMC7406587, “Improving the production of AHL lactonase AiiO-AIO6 from Ochrobactrum sp. M231 in intracellular protease-deficient Bacillus subtilis” (AMB Express, 2020).

Substrate: CCCCCC(=O)CC(=O)N[C@H]1CCOC1=O
Test: purified protein
Format: biochemical, Ochrobactrum sp. M231
Settings: PBS pH 7.0, 30 °C, 30 min, substrate range printed as 0.249 to 0.870 nM in methods, not consistent with Km in mmol/L, hydrolysis assay used 0.248 mM

B1: AiiO-AIO6 (Ochrobactrum sp. M231) (protein)
chain: MKSHEIETSHGRIAIRESRGNGTPLLMIHGNSSAGAIFAPQLEGEIGRNWRVIAPDLPGHGQSGNALDPDRSYSMEGYADVMTEVLAKLGISDAVVFGWSLGGHIGIEMISRFPGMRGLMITGTPPVAREEVGQGFRSGPDMALAGQEAFSDRDVESYARSTCGEPFEEQLLEIVARTDGRARRIMFEKFAAGTGGNQRDIVAEARLPIAVVNGRDEPFVELDFVSKVRFGNLWEGRTHVIDGAGHAPFRETPAIFDDYLQRFMRDCTA
notes: purified recombinant; expressed from pWB-AIO6BS in Bacillus subtilis 1A751 or protease-deletion derivatives (non-classical secretion, no signal peptide); His tag implied by anti-His Western blot; catalytic triad Ser100, Glu214, His246
Km: 415.1 µM
kcat: 9.34 S^-1
